The record followed here is article doi:10.1101/2023.11.30.569340.

The target of the first experiment is EEEV E2 domain B (Eastern equine encephalitis virus). The experiment in a line: BLI.
In general, Kd refers to the concentration at which binding is half-saturated. A higher Kd goes with lower affinity. As for VLDLR LA1-8-Fc (Fc fusion), the Kd was determined as 1400 nM.

In the next experiment the target is EEEV PE6 virus-like particle (VLP) (Eastern equine encephalitis virus, strain PE6). Put plainly: BLI. A general note: Biolayer interferometry detects binding as a change in optical thickness at a sensor tip.
As for S. vulgaris VLDLR LA1-8-Fc (Fc fusion), the dissociation constant Kd came to 11 nM.
In turn, VLDLR LA1-2-Fc (Fc fusion) had a Kd of 505 nM.
Substance VLDLR LA1-3-Fc (Fc fusion) displayed a Kd of 363 nM.
Regarding VLDLR LA1-8-Fc (Fc fusion), the Kd is 2.9 nM.
Take VLDLR LA2-3-Fc (Fc fusion): the Kd worked out at 1800 nM.
In the case of VLDLR LA2-4-Fc (Fc fusion), the Kd came out at 1100 nM.
Substance VLDLR LA2-5-Fc (Fc fusion) registered a Kd of 42.5 nM.
VLDLR LA3-4-Fc (Fc fusion) gave a Kd of 3900 nM.
VLDLR LA3-5-Fc (Fc fusion): the dissociation constant Kd is 32.3 nM.
Still for that read-out and setting: the value for VLDLR LA3-6-Fc (Fc fusion) was 71.5 nM.
Substance VLDLR LA4-5-Fc (Fc fusion) displayed a Kd of 11900 nM.
Still for that read-out and setting: the value for VLDLR LA4-6-Fc (Fc fusion) was 2300 nM; that for VLDLR LA5-6-Fc (Fc fusion) was 4200 nM.
